Literature values, collected in PMC293425.

Target: relaxin receptor LGR7 (Homo sapiens) (UniProt Q9HBX9)
UniProt Q9HBX9, sequence (Q9HBX9 whole entry): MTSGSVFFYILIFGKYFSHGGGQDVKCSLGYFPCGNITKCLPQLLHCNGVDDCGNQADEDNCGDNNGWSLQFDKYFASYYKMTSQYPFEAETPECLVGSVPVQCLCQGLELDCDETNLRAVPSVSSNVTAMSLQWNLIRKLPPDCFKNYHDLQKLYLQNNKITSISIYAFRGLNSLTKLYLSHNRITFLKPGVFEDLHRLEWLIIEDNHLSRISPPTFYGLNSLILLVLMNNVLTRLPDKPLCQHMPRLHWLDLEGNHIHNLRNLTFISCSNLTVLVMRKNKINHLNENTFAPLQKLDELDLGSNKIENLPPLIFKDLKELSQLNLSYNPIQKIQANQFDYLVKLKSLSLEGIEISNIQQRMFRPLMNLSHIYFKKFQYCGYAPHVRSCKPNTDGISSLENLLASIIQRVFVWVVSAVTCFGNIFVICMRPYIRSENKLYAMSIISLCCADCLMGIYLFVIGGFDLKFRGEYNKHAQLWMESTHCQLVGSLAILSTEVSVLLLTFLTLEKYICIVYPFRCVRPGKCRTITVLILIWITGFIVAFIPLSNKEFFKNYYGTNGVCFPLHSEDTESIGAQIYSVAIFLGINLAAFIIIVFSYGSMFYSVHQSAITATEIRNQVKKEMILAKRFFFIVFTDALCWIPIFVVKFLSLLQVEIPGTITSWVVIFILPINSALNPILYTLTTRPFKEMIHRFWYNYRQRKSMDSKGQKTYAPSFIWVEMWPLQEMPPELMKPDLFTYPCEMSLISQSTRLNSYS

relaxin, sequence (P04090 162-185): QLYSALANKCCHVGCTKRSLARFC

For relaxin (from UniProt P04090), the Kd is listed as 1 nM.
